Values quoted from earlier work, collected in US20240424090A1, “COMPOSITIONS AND METHODS FOR USE IN IMMUNOTHERAPY” (INSTITUT CURIE, priority 2021, published 2024).

Assays:
FCGRIIIA = FCGRIIIA (Homo sapiens, UniProt P08637)
FCGRIIA = target: T1, FCGRIIA (Homo sapiens, UniProt P12318)
T1 sequence (P12318 34-317): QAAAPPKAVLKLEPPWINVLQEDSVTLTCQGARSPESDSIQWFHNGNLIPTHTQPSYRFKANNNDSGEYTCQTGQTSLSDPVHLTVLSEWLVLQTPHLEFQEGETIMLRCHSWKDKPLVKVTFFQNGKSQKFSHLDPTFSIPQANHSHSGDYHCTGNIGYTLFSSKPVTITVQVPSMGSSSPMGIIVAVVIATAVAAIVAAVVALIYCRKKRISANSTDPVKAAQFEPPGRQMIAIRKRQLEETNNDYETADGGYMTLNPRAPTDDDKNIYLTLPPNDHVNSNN

FCGRIIIA, sequence (P08637 17-254): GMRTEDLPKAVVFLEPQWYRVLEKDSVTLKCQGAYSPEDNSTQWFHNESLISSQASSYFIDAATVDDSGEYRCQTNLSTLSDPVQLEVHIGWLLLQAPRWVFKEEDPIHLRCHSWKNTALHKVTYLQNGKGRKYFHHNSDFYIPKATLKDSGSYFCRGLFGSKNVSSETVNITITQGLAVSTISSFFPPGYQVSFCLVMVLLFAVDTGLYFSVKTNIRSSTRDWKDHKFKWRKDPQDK

In the case of Tremelimumab: IgG2 anti-CTLA-4 antibody, the “binding to FCGRIIIA” value (FCGRIIIA) is given as “not” and the “binding to FCGRIIA” value (FCGRIIA) is given as “binds well”.
